Experiments:
[1] = target: T1, chloroplast ATP synthase (CF1FO) γ subunit (Spinacia oleracea, UniProt P05435 42-364, disulfide γCys240-γCys246 in the oxidized (IBZ) sample; free cysteines in the reduced (DTT) sample); assay: cryo-EM structure; details: both partners purified
T1 construct: ATP synthase gamma chain, chloroplastic, Spinacia oleracea; endogenous subunit of the purified complex; One molecule for both redox states; also called central shaft γ subunit; source: purified from spinach leaves as part of the CF1FO complex (ammonium sulfate, sucrose gradient, anion exchange, SEC)
T1 sequence (looked up): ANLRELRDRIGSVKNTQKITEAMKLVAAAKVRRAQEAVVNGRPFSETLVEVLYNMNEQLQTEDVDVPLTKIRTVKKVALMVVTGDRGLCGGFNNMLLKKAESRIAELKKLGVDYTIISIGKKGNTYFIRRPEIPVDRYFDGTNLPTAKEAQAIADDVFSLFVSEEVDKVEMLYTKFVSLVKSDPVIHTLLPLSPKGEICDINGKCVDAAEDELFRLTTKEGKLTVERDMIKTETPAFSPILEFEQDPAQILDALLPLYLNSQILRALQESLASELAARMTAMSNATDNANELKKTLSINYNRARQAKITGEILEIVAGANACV

cryo-EM structure = target: the molecule itself; assay: cryo-EM structure

B1: chloroplast ATP synthase (CF1FO) ε subunit (natural protein, Spinacia oleracea, UniProt P00833 1-134, looked up)
chain: MTLNLCVLTPNRSIWNSEVKEIILSTNSGQIGVLPNHAPTATAVDIGILRIRLNDQWLTLALMGGFARIGNNEITILVNDAERGSDIDPQEAQQTLEIAEANLRKAEGKRQKIEANLALRRARTRVEASNTISS
notes: ATP synthase epsilon chain, chloroplastic, Spinacia oleracea; endogenous subunit of the purified complex; source: purified from spinach leaves as part of the CF1FO complex (ammonium sulfate, sucrose gradient, anion exchange, SEC)
binding result [1]: binds

B2: chloroplast ATP synthase (CF1FO) subunit c (c14 ring) (natural protein, Spinacia oleracea, UniProt P69447 1-81, looked up)
chain: MNPLIAAASVIAAGLAVGLASIGPGVGQGTAAGQAVEGIARQPEAEGKIRGTLLLSLAFMEALTIYGLVVALALLFANPFV
notes: ATP synthase subunit c, chloroplastic, Spinacia oleracea; endogenous subunit of the purified complex; also called c ring; c-ring rotor; source: purified from spinach leaves as part of the CF1FO complex (ammonium sulfate, sucrose gradient, anion exchange, SEC); copies: 14
stoichiometry N (cryo-EM structure): 14

Source: publication PMC7468127, “Structural basis of redox modulation on chloroplast ATP synthase” (Communications Biology, 2020)
